# Results: publication PMC9133466
# Where no end group is shown, it is not given here. [ ]: non-standard residue; d: D form.
# Key:
# [1] = molecular target: amyloid beta (Aβ) of human brain homogenate (human (endogenous in human brain))
# [2] = molecular target: amyloid beta (Aβ) of human brain homogenate (human (endogenous in human brain)); remark: listed apart in the source
# [3] = molecular target: amyloid beta (Aβ) of APP/PS1 mouse brain homogenate (human)
# [4] = molecular target: amyloid beta (Aβ) of human brain homogenate (human (endogenous in human brain)); remark: listed apart in the source
binder,measurement,setting,value
[dP][dT][dL][dH][dT][dH][dN][dR][dR][dR][dR][dR]-NH2 (N-terminus assumed; SMILES CC(C)C[C@@H](NC(=O)[C@H](NC(=O)[C@H]1CCCN1)[C@H](C)O)C(=O)N[C@H](Cc1c[nH]cn1)C(=O)N[C@@H](C(=O)N[C@H](Cc1c[nH]cn1)C(=O)N[C@H](CC(N)=O)C(=O)N[C@H](CCCNC(=N)N)C(=O)N[C@H](CCCNC(=N)N)C(=O)N[C@H](CCCNC(=N)N)C(=O)N[C@H](CCCNC(=N)N)C(=O)N[C@H](CCCNC(=N)N)C(N)=O)[C@H](C)O) [RD2],"reduction of Aβ oligomer concentration (Aβ with Aβ) by sFIDA; human AD brain homogenate AD2 diluted 1:10, 0.31-20 μM RD2, 24 h",[1],93%
same,"reduction of Aβ oligomer concentration (Aβ with Aβ) by sFIDA; human AD brain homogenate AD2 diluted 1:20, 0.31-20 μM RD2, 24 h",[1],95%
same,"reduction of Aβ oligomer concentration (Aβ with Aβ) by sFIDA; human AD brain homogenate AD2 diluted 1:40, 0.31-20 μM RD2, 24 h",[1],96%
same,"reduction of Aβ oligomer concentration (Aβ with Aβ) by sFIDA; DGC fraction 10 of human AD brain homogenate AD2 diluted 1:10, 5 and 20 μM RD2, 0 to 1,380 min",[2],92%
same,"reduction of Aβ oligomer concentration (Aβ with Aβ) by sFIDA; DGC fraction 10 of human AD brain homogenate AD6 diluted 1:10, 5 and 20 μM RD2, 0 to 1,380 min",[2],88%
same,"reduction of Aβ oligomer concentration (Aβ with Aβ) by sFIDA; pooled DGC fractions 4 to 6 of human AD brain homogenate AD2, 20 μM RD2, 1,380 min",[2],64%
same,"reduction of Aβ oligomer concentration (Aβ with Aβ) by sFIDA; pooled DGC fractions 4 to 6 of human AD brain homogenate AD6, 20 μM RD2, 1,380 min",[2],62%
same,"reduction of Aβ oligomer concentration (Aβ with Aβ) by sFIDA; DGC fraction 10 of APP/PS1 mouse brain homogenate diluted 1:2, 0-50 μM RD2, 0 min to 20 h, 4 °C",[3],81%
same,"decrease of Aβ oligomer concentration (Aβ with Aβ) by sFIDA; human AD brain homogenate AD2 diluted 1:20, 1.25-20 μM RD2, 0 to 1,365 min",[4],93%
same,"decrease of Aβ oligomer concentration (Aβ with Aβ) by sFIDA; human AD brain homogenate AD4 diluted 1:20, 1.25-20 μM RD2, 0 to about 23 h",[4],91%
same,"decrease of Aβ oligomer concentration (Aβ with Aβ) by sFIDA; human AD brain homogenate AD5 diluted 1:20, 1.25-20 μM RD2, 0 to about 23 h",[4],89%
same,"decrease of Aβ oligomer concentration (Aβ with Aβ) by sFIDA; human AD brain homogenate AD6 diluted 1:20, 1.25-20 μM RD2, 0 to 1,425 min",[4],90%
same,"reaction rate constant k (1,fast) of Aβ oligomer elimination by RD2 (global double exponential fit, effective RD2 1 and 16 μM); homogenate AD2 (L∗mol^−1∗min^−1)",[4],2330
same,"reaction rate constant k (1,fast) of Aβ oligomer elimination by RD2 (global double exponential fit, effective RD2 1 and 16 μM); homogenate AD4 (L∗mol^−1∗min^−1)",[4],2930
same,"reaction rate constant k (1,fast) of Aβ oligomer elimination by RD2 (global double exponential fit, effective RD2 1 and 16 μM); homogenate AD5 (L∗mol^−1∗min^−1)",[4],2370
same,"reaction rate constant k (1,fast) of Aβ oligomer elimination by RD2 (global double exponential fit, effective RD2 1 and 16 μM); homogenate AD6 (L∗mol^−1∗min^−1)",[4],1280
same,"reaction rate constant k (1,slow) of Aβ oligomer elimination by RD2 (global double exponential fit, effective RD2 1 and 16 μM); homogenate AD2 (L∗mol^−1∗min^−1)",[4],76
same,"reaction rate constant k (1,slow) of Aβ oligomer elimination by RD2 (global double exponential fit, effective RD2 1 and 16 μM); homogenate AD4 (L∗mol^−1∗min^−1)",[4],37
same,"reaction rate constant k (1,slow) of Aβ oligomer elimination by RD2 (global double exponential fit, effective RD2 1 and 16 μM); homogenate AD5 (L∗mol^−1∗min^−1)",[4],50
same,"reaction rate constant k (1,slow) of Aβ oligomer elimination by RD2 (global double exponential fit, effective RD2 1 and 16 μM); homogenate AD6 (L∗mol^−1∗min^−1)",[4],48
[dQ][dS][dH][dY][dR][dH][dI][dS][dP][dA][dQ][dV]-NH2 (N-terminus assumed; SMILES CC[C@@H](C)[C@@H](NC(=O)[C@@H](Cc1c[nH]cn1)NC(=O)[C@@H](CCCNC(=N)N)NC(=O)[C@@H](Cc1ccc(O)cc1)NC(=O)[C@@H](Cc1c[nH]cn1)NC(=O)[C@@H](CO)NC(=O)[C@H](N)CCC(N)=O)C(=O)N[C@H](CO)C(=O)N1CCC[C@@H]1C(=O)N[C@H](C)C(=O)N[C@H](CCC(N)=O)C(=O)N[C@@H](C(N)=O)C(C)C) [D1],"reduction of Aβ oligomer signal by sFIDA; human AD brain homogenate AD2 diluted 1:40 (similar at 1:10 and 1:20), 0.31-20 μM D1, 24 h",[1],27%
